Results: patent publication US20190016816A1 (APTEVO RESEARCH AND DEVELOPMENT, published 2019)

T1: FcγRIIa (CD32a His131) (UniProt P12318 34-317, limits assumed)
T1 construct: whole, on cells; allotype His131 as printed
T1 sequence (looked up): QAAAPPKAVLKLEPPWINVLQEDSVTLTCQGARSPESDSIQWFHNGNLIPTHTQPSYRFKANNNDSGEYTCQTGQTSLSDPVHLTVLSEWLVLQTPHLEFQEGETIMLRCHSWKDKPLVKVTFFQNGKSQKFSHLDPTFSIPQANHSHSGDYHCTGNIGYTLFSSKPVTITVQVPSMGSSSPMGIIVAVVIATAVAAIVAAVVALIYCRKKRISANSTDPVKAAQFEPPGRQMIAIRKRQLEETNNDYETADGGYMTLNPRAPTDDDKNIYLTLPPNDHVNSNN

T2: human 5T4 on cells (human, UniProt Q13641 32-420)
T2 construct: also called TPBG; hu5T4
T2 sequence: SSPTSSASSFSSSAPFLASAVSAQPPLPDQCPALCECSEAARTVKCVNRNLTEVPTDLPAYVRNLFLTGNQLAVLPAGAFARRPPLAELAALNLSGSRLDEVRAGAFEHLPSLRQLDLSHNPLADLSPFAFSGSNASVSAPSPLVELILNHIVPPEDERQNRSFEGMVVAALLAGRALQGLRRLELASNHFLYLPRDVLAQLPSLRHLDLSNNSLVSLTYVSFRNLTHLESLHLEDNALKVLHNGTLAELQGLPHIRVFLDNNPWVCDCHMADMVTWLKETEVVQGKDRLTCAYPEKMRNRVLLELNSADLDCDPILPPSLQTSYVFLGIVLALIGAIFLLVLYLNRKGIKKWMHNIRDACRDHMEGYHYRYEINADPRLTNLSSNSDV


What was measured:
[1] = molecular target: T1, FcγRIIa (CD32a His131); experiment: flow cytometry, CHO cells stably expressing CD32a His131, fluorescent anti-human IgG secondary, MFI (mean)
From the text: ALG.APV-210 contains mutations introduced to prevent interaction with Fcγ receptors (FcγR) that could lead to FcγR-mediated T-cell activation or ADCC, ADCP, CDC etc. Binding of ALG.APV-210 was therefore tested on CHO cell transfectants stably expressing the following FcγR: FcγRI (CD64), FcγRIIa (CD32a His131), FcγRIIb (CD32b), FcγRIIIa (CD16a Val158 and CD16a Phe158), and FcγRIIIb (CD16b). Untransfected CHO cells were used as negative control. A control human IgG1 molecule was used as a positive control. Different concentrations of ALG.APV-210 or control IgG1 were incubated with the FcγR-expressing cell lines, washed, and labeled with a secondary anti-human IgG reagent. Binding of ALG.APV-210 and the control IgG1 was detected by flow cytometry.

[2] = molecular target: T2, human 5T4 on cells; experiment: flow cytometry, MDA.MB-231 cells, PE goat anti-human Fc
Protocol: A 3-fold titration of ALG.APV-210 construct (ranging from 100 nM to 0.14 nM) was incubated with the human 5T4-expressing cell lines for 40 minutes in FACS buffer at 4° C., washed 3 times, and detected with PE-labeled, goat-anti-human Fc secondary antibody (Jackson ImmunoResearch). Binding of ALG.APV-210 was detected by flow cytometry. All samples were run in duplicates. Nonlinear regression analysis to determine EC₅₀ values was performed in GraphPad Prism 6® graphing and statistics software.

[3] = molecular target: T3, cynomolgus CD137 on cells (cynomolgus macaque, UniProt A9YYE7 24-254); experiment: flow cytometry, MFI of the CD137 positive cells; cynomolgus CD8 T cells, MFI of CD137 positive cells
T3 construct: whole, on cells; also called CHO-K1/cynomolgus CD137 cell line; cynomolgus monkey CD137 on CD3-stimulated primary CD8 T cells
Protocol: (§1) Following 48 h of incubation with or without CD3, human and cynomolgus PBMC were harvested, pooled, recounted and diluted in FACS buffer (PBS+0.5% BSA, 0.05% NaN₃) to a concentration of 5×10⁶ cells/mL. 50 μL (0.25×10⁶ cells) of cell solution was added to a 96-well FACS staining plate (Falcon #351190). Following 10 min of Fc-blocking in RT using Beriglobin (hIgG, 200 μg/mL), cells were washed in FACS buffer and then incubated for 1 h in 4° C. with 100 μL of the biotinylated ALG.APV-210 or negative control. […] Cells were analysed for ALG.APV-210 binding using flow cytometry by gating on viable, single cells expressing CD3 and CD8. MFI values (FMO subtracted) from 2 independent experiments as well as normalized pooled data from 2 experiments and EC₅₀-values were determined and plotted using GraphPad Prism 7, non-linear regression log (agonist) vs. normalized response—variable slope, n=6 donors/group.
ALG.APV-210 binding was also assessed by looking at the percentage of CD8 T cells bound by ALG.APV-210. […] The binding EC₅₀ values were also calculated on the MFI of the CD137 positive cells, and the results was an EC₅₀ of 0.17 nM for binding to human CD137 and 0.20 nM for cynomolgus monkey CD137.

[4] = molecular target: T4, human CD137 on cells (human, UniProt Q07011 24-255); experiment: flow cytometry, CD8 T cells gated from CD3-stimulated human PBMC, biotinylated antibody + streptavidin-APC, exp 1, n=3 donors
T4 construct: also called 4-1BB; TNFRSF9 (CHO-K1/human CD137 cells)
Protocol: as §1
In ELISA tests, the binding of biotinylated ALG.APV-210 to CD137 was similar to that of the non-biotinylated ALG.APV-210 (0.6 nM vs. 0.7 nM). The binding (EC₅₀) of the biotinylated ALG.APV-210 to its immunomodulatory target CD137 when expressed on activated primary human and cynomolgus CD8 T cells from CD3 stimulated PBMC was assessed and compared between the two species as well as to unstimulated cells. […]

T3 sequence (A9YYE7 entry or part of it): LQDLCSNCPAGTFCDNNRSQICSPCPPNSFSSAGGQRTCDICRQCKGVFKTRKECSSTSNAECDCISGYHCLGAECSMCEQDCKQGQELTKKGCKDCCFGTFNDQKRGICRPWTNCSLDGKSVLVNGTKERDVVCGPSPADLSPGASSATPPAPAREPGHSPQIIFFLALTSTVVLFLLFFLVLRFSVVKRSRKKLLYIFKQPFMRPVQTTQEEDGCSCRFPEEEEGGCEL
T4 sequence (Q07011 24-255 limits assumed): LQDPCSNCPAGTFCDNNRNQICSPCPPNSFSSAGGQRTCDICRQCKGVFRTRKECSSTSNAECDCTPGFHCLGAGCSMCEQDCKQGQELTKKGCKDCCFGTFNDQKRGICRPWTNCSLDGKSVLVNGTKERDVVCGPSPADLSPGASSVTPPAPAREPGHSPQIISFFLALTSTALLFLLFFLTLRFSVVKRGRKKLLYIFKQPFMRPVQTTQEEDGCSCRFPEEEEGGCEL

| binding result [1] | EC50 [2] | Binder | EC50 [3] | EC50 (read off the curve) [4] |
| --- | --- | --- | --- | --- |
| no binding (tested: 1000 nM) | 21 nM | ALG.APV-210 (bispecific antibody, Optimized ADAPTIR scFv-Fc-scFv homodimer with stabilizing disulfide in the 1210 scFv; also called 5T4-CD137 bispecific antibody) EVQLLESGGGLVQPGGSLRLSCAASGFTFSHGSMYWVRQAPGKGLEWVSSISSGSGSTYYADSVKGRFTISHDNSKNTLYLQMNSLRAEDTAVYYCARSSYYGSYYSIDYWGQGTLVTVSSGGGGSGGGGSGGGGSGGGGSDIQMTQSPSSLSASVGDRVTITCRASQSISSYLNWYQQKPGKAPKLLIYAASSLQSGVPSRFSGSGSGTDFTLTISSLQPEDFATYYCQQYYDNLPTFGQGTKLEIKEPKSSDKTHTCPPCPAPEAAGAPSVFLFPPKPKDTLMISRTPEVTCVVVDVSHEDPEVKFNWYVDGVEVHNAKTKPREEQYNSTYRVVSVLTVLHQDWLNGKEYKCAVSNKALPAPIEKTISKAKGQPREPQVYTLPPSRDELTKNQVSLTCLVKGFYPSDIAVEWESNGQPENNYKTTPPVLDSDGSFFLYSKLTVDKSRWQQGNVFSCSVMHEALHNHYTQKSLSLSPGSGGGGSGGGGSGGGGSPSEVQLLESGGGLVQPGGSLRLSCAASGFTFSSYAMSWVRQAPGKCLEWVSAISGSGGSTYYADSVKGRFTISRDNSKNTLYLQMNSLRAEDTAVYYCARYYGGYYSAWMDYWGQGTLVTVSSGGGGSGGGGSGGGGSGGGGSDIQMTQSPSSLSASVGDRVTITCRASQSISSFLNWYQQKPGKAPKLLIYAASSLQSGVPSRFSGSGSGTDFTLTISSLQPEDSATYYCQQTYGYLHTFGCGTKLEIKR | – | – |
| – | – | biotinylated ALG.APV-210 (bispecific antibody, also called ALG.APV-210 (biotinylated for FACS detection)) EVQLLESGGGLVQPGGSLRLSCAASGFTFSHGSMYWVRQAPGKGLEWVSSISSGSGSTYYADSVKGRFTISHDNSKNTLYLQMNSLRAEDTAVYYCARSSYYGSYYSIDYWGQGTLVTVSSGGGGSGGGGSGGGGSGGGGSDIQMTQSPSSLSASVGDRVTITCRASQSISSYLNWYQQKPGKAPKLLIYAASSLQSGVPSRFSGSGSGTDFTLTISSLQPEDFATYYCQQYYDNLPTFGQGTKLEIKEPKSSDKTHTCPPCPAPEAAGAPSVFLFPPKPKDTLMISRTPEVTCVVVDVSHEDPEVKFNWYVDGVEVHNAKTKPREEQYNSTYRVVSVLTVLHQDWLNGKEYKCAVSNKALPAPIEKTISKAKGQPREPQVYTLPPSRDELTKNQVSLTCLVKGFYPSDIAVEWESNGQPENNYKTTPPVLDSDGSFFLYSKLTVDKSRWQQGNVFSCSVMHEALHNHYTQKSLSLSPGSGGGGSGGGGSGGGGSPSEVQLLESGGGLVQPGGSLRLSCAASGFTFSSYAMSWVRQAPGKCLEWVSAISGSGGSTYYADSVKGRFTISRDNSKNTLYLQMNSLRAEDTAVYYCARYYGGYYSAWMDYWGQGTLVTVSSGGGGSGGGGSGGGGSGGGGSDIQMTQSPSSLSASVGDRVTITCRASQSISSFLNWYQQKPGKAPKLLIYAASSLQSGVPSRFSGSGSGTDFTLTISSLQPEDSATYYCQQTYGYLHTFGCGTKLEIKR | 0.2 nM | ~0.3 nM |
